Reference: paper PMC4166567

Legend:
[1] = molecular target: adenylyl cyclase 5/6 (AC5/6), endogenous in HEK-293 cells (human (endogenous in HEK-293)) (UniProt O95622); experiment: co-IP
[2] = molecular target: caveolin-1 (Cav-1), endogenous in human renal proximal tubule (hRPT) cells (human (endogenous in hRPT cells)) (UniProt Q03135); experiment: co-IP
Sequence of UniProt Q03135 (Q03135 whole entry): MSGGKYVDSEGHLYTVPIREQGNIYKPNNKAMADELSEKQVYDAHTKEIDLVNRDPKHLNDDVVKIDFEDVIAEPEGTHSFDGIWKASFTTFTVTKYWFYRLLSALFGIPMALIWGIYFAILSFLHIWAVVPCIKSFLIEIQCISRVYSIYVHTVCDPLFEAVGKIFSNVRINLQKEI

| density of the co-immunoprecipitated band (DU), cells with fenoldopam [1] | density of the co-immunoprecipitated band (DU), cells with fenoldopam [2] | density of the co-immunoprecipitated band (DU), control cells [2] | Substance |
| --- | --- | --- | --- |
| 41.9 DU |  |  | human dopamine D1 receptor, Myc-tagged, heterologously expressed in HEK-293 cells (HEK-hD1R) (from UniProt P21728 1-446) |
|  | 148 DU | 70.3 DU | adenylyl cyclase 5/6 (AC5/6), endogenous in human renal proximal tubule (hRPT) cells (from UniProt O95622 1-1261) (enzyme) |
| 76.2 DU |  |  | human dopamine D5 receptor, V5-tagged, heterologously expressed in HEK-293 cells (HEK-hD5R) (from UniProt P21918 1-477) |
